# Test results as given in US20190112341.
# System: EV71 structural polyprotein P1 (Wt HK08), unprocessed (98 kDa)
Substance,"proteolytic processing of P1 in planta, anti-VP1 western blot (vectors 1300+1315)","proteolytic processing of P1 in planta, anti-VP1 western blot (vectors 1300+1310)"
EV71 protease 3CD (Wt GDFS08),the 98 kDa signal completely disappears and a new product is detected that corresponds in molecular weight to VP1 (33.5 kDa),–
EV71 protease 3CD (Wt HK08),–,the 98 kDa signal completely disappears and a new product is detected that corresponds in molecular weight to VP1 (33.5 kDa)
